Key:
[1] = biological target: CA hexamer-2 (HIV-1 | not stated); test: SEC-MALS
[2] = biological target: A14C/E45C disulfide crosslinked CA tubes (HIV-1); test: co-sedimentation
[3] = biological target: CA hexamer-2 (HIV-1 | not stated); test: ITC

Chain of NUP153^1401-1475 (P49790 1401-1475): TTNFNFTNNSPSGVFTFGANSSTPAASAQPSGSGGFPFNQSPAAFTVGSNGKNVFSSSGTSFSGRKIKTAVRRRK

Substance	percent bound to CA tubes [2] [%]	further results
NUP153^1401-1475 (from UniProt P49790 1401-1475) (domain or fragment)		stoichiometry N (NUP153^1401-1475 per hexamer-2) [1]: 1
NUP153^1411-1465 (from UniProt P49790 1411-1464) (domain or fragment)	25	
NUP153^1411-1475/1425-1464Δ peptide (25 aa) (from UniProt P49790 1411-1475)		Kd [3]: 800 nM
NUP153^1465-1475 (from UniProt P49790 1465-1475) (domain or fragment)	50	
